Results from PMC9537018.

B1: Staphylococcal nuclease domain-containing protein 1 (SND1): tunicamycin (protein)
parent chain: MASSAQSGGSSGGPAVPTVQRGIIKMVLSGCAIIVRGQPRGGPPPERQINLSNIRAGNLARRAAATQPDAKDTPDEPWAFPAREFLRKKLIGKEVCFTIENKTPQGREYGMIYLGKDTNGENIAESLVAEGLATRREGMRANNPEQNRLSECEEQAKAAKKGMWSEGNGSHTIRDLKYTIENPRHFVDSHHQKPVNAIIEHVRDGSVVRALLLPDYYLVTVMLSGIKCPTFRREADGSETPEPFAAEAKFFTESRLLQRDVQIILESCHNQNILGTILHPNGNITELLLKEGFARCVDWSIAVYTRGAEKLRAAERFAKERRLRIWRDYVAPTANLDQKDKQFVAKVMQVLNADAIVVKLNSGDYKTIHLSSIRPPRLEGENTQDKNKKLRPLYDIPYMFEAREFLRKKLIGKKVNVTVDYIRPASPATETVPAFSERTCATVTIGGINIAEALVSKGLATVIRYRQDDDQRSSHYDELLAAEARAIKNGKGLHSKKEVPIHRVADISGDTQKAKQFLPFLQRAGRSEAVVEYVFSGSRLKLYLPKETCLITFLLAGIECPRGARNLPGLVQEGEPFSEEATLFTKELVLQREVEVEVESMDKAGNFIGWLHIDGANLSVLLVEHALSKVHFTAERSSYYKSLLSAEEAAKQKKEKVWAHYEEQPVEEVMPVLEEKERSASYKPVFVTEITDDLHFYVQDVETGTQLEKLMENMRNDIASHPPVEGSYAPRRGEFCIAKFVDGEWYRARVEKVESPAKIHVFYIDYGNREVLPSTRLGTLSPAFSTRVLPAQATEYAFAFIQVPQDDDARTDAVDSVVRDIQNTQCLLNVEHLSAGCPHVTLQFADSKGDVGLGLVKEGLVMVEVRKEKQFQKVITEYLNAQESAKSARLNLWRYGDFRADDADEFGYSR
B2: Staphylococcal nuclease domain-containing protein 1 (SND1): N50Q (protein)
parent chain: MASSAQSGGSSGGPAVPTVQRGIIKMVLSGCAIIVRGQPRGGPPPERQINLSNIRAGNLARRAAATQPDAKDTPDEPWAFPAREFLRKKLIGKEVCFTIENKTPQGREYGMIYLGKDTNGENIAESLVAEGLATRREGMRANNPEQNRLSECEEQAKAAKKGMWSEGNGSHTIRDLKYTIENPRHFVDSHHQKPVNAIIEHVRDGSVVRALLLPDYYLVTVMLSGIKCPTFRREADGSETPEPFAAEAKFFTESRLLQRDVQIILESCHNQNILGTILHPNGNITELLLKEGFARCVDWSIAVYTRGAEKLRAAERFAKERRLRIWRDYVAPTANLDQKDKQFVAKVMQVLNADAIVVKLNSGDYKTIHLSSIRPPRLEGENTQDKNKKLRPLYDIPYMFEAREFLRKKLIGKKVNVTVDYIRPASPATETVPAFSERTCATVTIGGINIAEALVSKGLATVIRYRQDDDQRSSHYDELLAAEARAIKNGKGLHSKKEVPIHRVADISGDTQKAKQFLPFLQRAGRSEAVVEYVFSGSRLKLYLPKETCLITFLLAGIECPRGARNLPGLVQEGEPFSEEATLFTKELVLQREVEVEVESMDKAGNFIGWLHIDGANLSVLLVEHALSKVHFTAERSSYYKSLLSAEEAAKQKKEKVWAHYEEQPVEEVMPVLEEKERSASYKPVFVTEITDDLHFYVQDVETGTQLEKLMENMRNDIASHPPVEGSYAPRRGEFCIAKFVDGEWYRARVEKVESPAKIHVFYIDYGNREVLPSTRLGTLSPAFSTRVLPAQATEYAFAFIQVPQDDDARTDAVDSVVRDIQNTQCLLNVEHLSAGCPHVTLQFADSKGDVGLGLVKEGLVMVEVRKEKQFQKVITEYLNAQESAKSARLNLWRYGDFRADDADEFGYSR
B3: Staphylococcal nuclease domain-containing protein 1 (SND1): N416Q (protein)
parent chain: MASSAQSGGSSGGPAVPTVQRGIIKMVLSGCAIIVRGQPRGGPPPERQINLSNIRAGNLARRAAATQPDAKDTPDEPWAFPAREFLRKKLIGKEVCFTIENKTPQGREYGMIYLGKDTNGENIAESLVAEGLATRREGMRANNPEQNRLSECEEQAKAAKKGMWSEGNGSHTIRDLKYTIENPRHFVDSHHQKPVNAIIEHVRDGSVVRALLLPDYYLVTVMLSGIKCPTFRREADGSETPEPFAAEAKFFTESRLLQRDVQIILESCHNQNILGTILHPNGNITELLLKEGFARCVDWSIAVYTRGAEKLRAAERFAKERRLRIWRDYVAPTANLDQKDKQFVAKVMQVLNADAIVVKLNSGDYKTIHLSSIRPPRLEGENTQDKNKKLRPLYDIPYMFEAREFLRKKLIGKKVNVTVDYIRPASPATETVPAFSERTCATVTIGGINIAEALVSKGLATVIRYRQDDDQRSSHYDELLAAEARAIKNGKGLHSKKEVPIHRVADISGDTQKAKQFLPFLQRAGRSEAVVEYVFSGSRLKLYLPKETCLITFLLAGIECPRGARNLPGLVQEGEPFSEEATLFTKELVLQREVEVEVESMDKAGNFIGWLHIDGANLSVLLVEHALSKVHFTAERSSYYKSLLSAEEAAKQKKEKVWAHYEEQPVEEVMPVLEEKERSASYKPVFVTEITDDLHFYVQDVETGTQLEKLMENMRNDIASHPPVEGSYAPRRGEFCIAKFVDGEWYRARVEKVESPAKIHVFYIDYGNREVLPSTRLGTLSPAFSTRVLPAQATEYAFAFIQVPQDDDARTDAVDSVVRDIQNTQCLLNVEHLSAGCPHVTLQFADSKGDVGLGLVKEGLVMVEVRKEKQFQKVITEYLNAQESAKSARLNLWRYGDFRADDADEFGYSR
B4: Staphylococcal nuclease domain-containing protein 1 (SND1): N283Q (protein)
parent chain: MASSAQSGGSSGGPAVPTVQRGIIKMVLSGCAIIVRGQPRGGPPPERQINLSNIRAGNLARRAAATQPDAKDTPDEPWAFPAREFLRKKLIGKEVCFTIENKTPQGREYGMIYLGKDTNGENIAESLVAEGLATRREGMRANNPEQNRLSECEEQAKAAKKGMWSEGNGSHTIRDLKYTIENPRHFVDSHHQKPVNAIIEHVRDGSVVRALLLPDYYLVTVMLSGIKCPTFRREADGSETPEPFAAEAKFFTESRLLQRDVQIILESCHNQNILGTILHPNGNITELLLKEGFARCVDWSIAVYTRGAEKLRAAERFAKERRLRIWRDYVAPTANLDQKDKQFVAKVMQVLNADAIVVKLNSGDYKTIHLSSIRPPRLEGENTQDKNKKLRPLYDIPYMFEAREFLRKKLIGKKVNVTVDYIRPASPATETVPAFSERTCATVTIGGINIAEALVSKGLATVIRYRQDDDQRSSHYDELLAAEARAIKNGKGLHSKKEVPIHRVADISGDTQKAKQFLPFLQRAGRSEAVVEYVFSGSRLKLYLPKETCLITFLLAGIECPRGARNLPGLVQEGEPFSEEATLFTKELVLQREVEVEVESMDKAGNFIGWLHIDGANLSVLLVEHALSKVHFTAERSSYYKSLLSAEEAAKQKKEKVWAHYEEQPVEEVMPVLEEKERSASYKPVFVTEITDDLHFYVQDVETGTQLEKLMENMRNDIASHPPVEGSYAPRRGEFCIAKFVDGEWYRARVEKVESPAKIHVFYIDYGNREVLPSTRLGTLSPAFSTRVLPAQATEYAFAFIQVPQDDDARTDAVDSVVRDIQNTQCLLNVEHLSAGCPHVTLQFADSKGDVGLGLVKEGLVMVEVRKEKQFQKVITEYLNAQESAKSARLNLWRYGDFRADDADEFGYSR
B5: Staphylococcal nuclease domain-containing protein 1 (SND1): N168Q (protein)
parent chain: MASSAQSGGSSGGPAVPTVQRGIIKMVLSGCAIIVRGQPRGGPPPERQINLSNIRAGNLARRAAATQPDAKDTPDEPWAFPAREFLRKKLIGKEVCFTIENKTPQGREYGMIYLGKDTNGENIAESLVAEGLATRREGMRANNPEQNRLSECEEQAKAAKKGMWSEGNGSHTIRDLKYTIENPRHFVDSHHQKPVNAIIEHVRDGSVVRALLLPDYYLVTVMLSGIKCPTFRREADGSETPEPFAAEAKFFTESRLLQRDVQIILESCHNQNILGTILHPNGNITELLLKEGFARCVDWSIAVYTRGAEKLRAAERFAKERRLRIWRDYVAPTANLDQKDKQFVAKVMQVLNADAIVVKLNSGDYKTIHLSSIRPPRLEGENTQDKNKKLRPLYDIPYMFEAREFLRKKLIGKKVNVTVDYIRPASPATETVPAFSERTCATVTIGGINIAEALVSKGLATVIRYRQDDDQRSSHYDELLAAEARAIKNGKGLHSKKEVPIHRVADISGDTQKAKQFLPFLQRAGRSEAVVEYVFSGSRLKLYLPKETCLITFLLAGIECPRGARNLPGLVQEGEPFSEEATLFTKELVLQREVEVEVESMDKAGNFIGWLHIDGANLSVLLVEHALSKVHFTAERSSYYKSLLSAEEAAKQKKEKVWAHYEEQPVEEVMPVLEEKERSASYKPVFVTEITDDLHFYVQDVETGTQLEKLMENMRNDIASHPPVEGSYAPRRGEFCIAKFVDGEWYRARVEKVESPAKIHVFYIDYGNREVLPSTRLGTLSPAFSTRVLPAQATEYAFAFIQVPQDDDARTDAVDSVVRDIQNTQCLLNVEHLSAGCPHVTLQFADSKGDVGLGLVKEGLVMVEVRKEKQFQKVITEYLNAQESAKSARLNLWRYGDFRADDADEFGYSR

Tests used:
[1] = immunoblot of protein level, rescue by MG132 or CQ; settings: glycan lost; control: untreated WT-SND1-EGFP
[2] = confocal colocalisation with Golgi marker GM130; settings: glycan lost; control: WT-SND1-EGFP
[3] = confocal colocalisation with ER marker CNX; settings: glycan lost; control: WT-SND1-EGFP

| Protein | degradation_or_half_life [1] | localisation_or_trafficking [2] | localisation_or_trafficking [3] |
| --- | --- | --- | --- |
| B1 | decreases |  |  |
| B2 | decreases | decreases | increases |
| B3 |  | no change | no change |
| B4 |  | no change | no change |
| B5 |  | no change | no change |
